{
  "source": "paper PMC10699557",
  "about": "“A recombinant approach for stapled peptide discovery yields inhibitors of the RAD51 recombinase” (Chemical Science, 2023)",
  "biological_target": "HumRadA22",
  "experiment": "fluorescence polarisation; competition: displacement of a fluorescently-labelled BRC4 repeat from HumRadA22; KD calculated from IC50; single titrations with three technical replicates at each point; mock (linear) samples with 500 uM TCEP",
  "data": [
    {"binder": "VNSSAFSGFCTASGKKLNVSCEALQKAVKLFSDIENIS (modifications not checked)", "note": "[GB1-SP7-His8, mock-stapled (linear)]", "values": [
      {"measurement": "Kd", "value": 39, "unit": "nM"}
    ]}
  ]
}
